We go through 3 proteins from PMC7409301, “Natural Killer Cell Activation Receptor NKp30 Oligomerization Depends on Its N-Glycosylation” (Cancers, 2020).

Several values for one entry are separate records, joined by “and”; a condition that tells them apart may be missing. Equal entries are not always repeated.

A short description of data set [1]: solubility during deglycosylation in HEPES buffer. Conditions: glycan lost; control: glycosylated B7-H6 (HEK293S GnTI−).
Data set [2] deals with the molecule itself. The data set can be described thus: AUC; sedimentation velocity of wild-type B7-H6 at 0.5 mg/mL, c(s) distribution.
A further data set is described as follows: SEC-MALS. Conditions: glycan lost; control: glycosylated NKp30_Stalk (HEK293T or HEK293S GnTI−).
The nature of data set [3]: sedimentation velocity AUC. The conditions noted are these: glycan lost; control: NKp30_Stalk from HEK293S GnTI− (uniform glycans).

B1: B7-H6: Endo F1 (protein)
parent chain: MTWRAAASTCAALLILLWALTTEGDLKVEMMAGGTQITPLNDNVTIFCNIFYSQPLNITSMGITWFWKSLTFDKEVKVFEFFGDHQEAFRPGAIVSPWRLKSGDASLRLPGIQLEEAGEYRCEVVVTPLKAQGTVQLEVVASPASRLLLDQVGMKENEDKYMCESSGFYPEAINITWEKQTQKFPHPIEISEDVITGPTIKNMDGTFNVTSCLKLNSSQEDPGTVYQCVVRHASLHTPLRSNFTLTAARHSLSETEKTDNFSIHWWPISFIGVGLVLLIVLIPWKKICNKSSSAYTPLKCILKHWNSFDTQTLKKEHLIFFCTRAWPSYQLQDGEAWPPEGSVNINTIQQLDVFCRQEGKWSEVPYVQAFFALRDNPDLCQCCRIDPALLTVTSGKSIDDNSTKSEKQTPREHSDAVPDAPILPVSPIWEPPPATTSTTPVLSSQPPTLLLPLQ
As for B1, the stability_or_folding entry in data set [1] is recorded as “decreases”.

B2: wild-type B7-H6 extracellular portion (with the odd cysteine Cys212) (domain or fragment, UniProt Q68D85 25-245, looked up)
chain: DLKVEMMAGGTQITPLNDNVTIFCNIFYSQPLNITSMGITWFWKSLTFDKEVKVFEFFGDHQEAFRPGAIVSPWRLKSGDASLRLPGIQLEEAGEYRCEVVVTPLKAQGTVQLEVVASPASRLLLDQVGMKENEDKYMCESSGFYPEAINITWEKQTQKFPHPIEISEDVITGPTIKNMDGTFNVTSCLKLNSSQEDPGTVYQCVVRHASLHTPLRSNFTL
modifications: N-glycosylated; disulfide bridges not linked correctly by mass spectrometry
notes: entire extracellular portion Asp25-Leu245 with two Ig-like domains; source: HEK293 cells, transient transfection, secreted, purified (IMAC, SEC); not shown: three amino acids left after cleavage of the secretion signal, N-terminal, kept
Broadly, the stoichiometry N is the number of molecules, sites or subunits per partner or assembly. Turning to B2, the “stoichiometry N” value in data set [2] was 2 and 4.

B3: NKp30: Endo F1 (protein)
parent chain: MAWMLLLILIMVHPGSCALWVSQPPEIRTLEGSSAFLPCSFNASQGRLAIGSVTWFRDEVVPGKEVRNGTPEFRGRLAPLASSRFLHDHQAELHIRDVRGHDASIYVCRVEVLGLGVGTGNGTRLVVEKEHPQLGAGTVLLLRAGFYAVSFLSVAVGSTVYYQGKCLTWKGPRRQLPAVVPAPLPPPCGSSAHLLPPVPGG
As to B3, the oligomerisation entry (in “SEC-MALS”; in data set [3]) was “abolishes” throughout.
